Assay in all cases: EMSA
Background: In EMSA bound probe runs differently from free probe, usually more slowly.

The target of series [1] is T1, H-NS wild type (UniProt P0ACF8 1-137).
T1 sequence: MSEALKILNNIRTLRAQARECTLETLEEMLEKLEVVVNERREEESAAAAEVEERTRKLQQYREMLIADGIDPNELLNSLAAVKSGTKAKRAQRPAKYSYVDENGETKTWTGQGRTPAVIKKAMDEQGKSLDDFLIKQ

For series [2], the target named is T2, Tn5 HA transposase (Tn5, UniProt Q46731 1-476, E54K;M56A;L372P).
Series [3] concerns the target T3, H-NS wild type;Tn5 HA transposase (Escherichia coli?;Tn5, UniProt P0ACF8;Q46731 1-137;1-476, |E54K;M56A;L372P).
Series [4] concerns the target T2, Tn5 HA transposase. This is another data set of the same source.
Series [5] concerns the target Tn5 transposase delta369 EK/MA (Tn5, UniProt Q46731 1-368, E54K;M56A).
In series [6] the target is H-NS wild type;Tn5 transposase delta369 EK/MA (Escherichia coli?;Tn5, UniProt P0ACF8;Q46731 1-137;1-368, |E54K;M56A).
For series [7], the target named is H-NS P116S;Tn5 transposase delta369 EK/MA (Escherichia coli?;Tn5, UniProt P0ACF8;Q46731 1-137;1-368, P116S|E54K;M56A).
In series [8] the target is T3, H-NS wild type;Tn5 HA transposase. The source holds these as a separate data set.
For series [9] the target is unchanged. This is another data set of the same source.

Like-named read-outs stand apart in the source and are kept apart here. Some results are limits rather than exact numbers.

B1: 20 bp ME (dsDNA)
DNA 1: CTGTCTCTTATACACATCTT
DNA 2: AAGATGTGTATAAGAGACAG
On to B1, for which the binding result in series [1] is “no binding”; in series [2], “binds”; in series [3] it was “binds”.

B2: 53 bp ME (WT) (dsDNA)
DNA 1: CCCTGCAGGTCGACTGTCTCTTATACACATCTTGAGTGAGTGAGCATGCATGT
DNA 2: ACATGCATGCTCACTCACTCAAGATGTGTATAAGAGACAGTCGACCTGCAGGG
B2: the binding result in series [4] is on record as “binds”; in series [5], “binds”; in series [6], “binds”; in [7], “no binding”. Moreover, the binding signal in series [8] was < 2 fold increase; in [9], 11 fold increase.

For the origin of these results see paper PMC2632911.
